Molecular target: the molecule itself
Experiment: native MS

B1: outer membrane porin F (OmpF) (natural protein)
chain: AEIYNKDGNKVDLYGKAVGLHYFSKGNGENSYGGNGDMTYARLGFKGETQINSDLTGYGQWEYNFQGNNSEGADAQTGNKTRLAFAGLKYADVGSFDYGRNYGVVYDALGYTDMLPEFGGDTAYSDDFFVGRVGGVATYRNSNFFGLVDGLNFAVQYLGKNERDTARRSNGDGVGGSISYEYEGFGIVGAYGAADRTNLQEAQPLGNGKKAEQWATGLKYDANNIYLAANYGETRNATPITNKFTNTSGFANKTQDVLLVAQYQFDFGLRPSIAYTKSKAKDVEGIGDVDLVNYFEVGATYYFNKNMSTYVDYIINQIDSDNKLGVGSDDTVAVGIVYQF
stoichiometry N: 3

Reference: publication PMC6042154 (Proceedings of the National Academy of Sciences of the …, 2018)
